Experimental data: the supplement of paper PMC10126150
± gives the standard deviation of the averaged measurements.

System: ATP
Assay: switch fluorescence ratio, 500 uM ATP over buffer (Cy3 cluster intensity, sum of 5 cycles each) (fold (ratio)); higher = stronger signal-on switching upon ATP binding; sequences stand for … in TCGTCGGCAGCGTCAGATGTGTATAAGAGACAGTTTTTTTTTTTTTTTTTTTTTTTTT…TC
Conditions: aptamer strand: ATP DNA aptamer (quencher-CACCTGGGGGAGTATTGCGGAGGAAGG + anchor), 100 nM annealed; ATP concentration: 500 uM
Method in brief: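 For every switch-domain sequence, the fluorescence ratio is the mean of per-cluster values, each being summed target-cycle Cy3 intensity over summed buffer-cycle Cy3 intensity. Clusters outside 100-1000 RFU were excluded. On a modified Illumina MiSeq flow-cell, the Cy3-labelled switching-strand clusters were annealed to 100 nM quencher-labelled ATP aptamer, imaged in selection buffer and then after 15 min with 500 uM ATP at 22 °C. Five such cycles were run, with NaOH stripping and re-annealing between them.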
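Note: ATP exposure 15 min at 22 °C before imaging.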

Sequence | switch fluorescence ratio
TGGGGGAAAT | 1.25 ± 0.74
GATAGGCAGG | 0.998 ± 0.019
TTCAGAGGAT | 1.02 ± 0.048
CCCTAATAGA | 1.03 ± 0.026
GGGAGTGAGA | 1.03 ± 0.035
TTTAAAAGGA | 1.01 ± 0.056
AAGGCTGCAG | 0.92 ± 0.05
ATTTGTTGG | 1.029 ± 0.0076
CGTTTACTTT | 0.984 ± 0.059
AAATTAATCC | 1.04 ± 0.038
TTGAAAGTAT | 1.03 ± 0.048
TCGGTTAATA | 1.018 ± 0.0054
ATTGGTAACC | 1.01 ± 0.039
TTTATAAAAT | 0.987 ± 0.039
AAGGTAGCGC | 0.974 ± 0.059
CCGGGGCCTA | 1.05 ± 0.026
GTGGTAAAAG | 0.984 ± 0.013
CGTTGGTGGC | 0.9457 ± 0.0066
GCGGTGACCG | 0.9978 ± 0.0046
TTTTACGCAC | 1.81 ± 0.024
TTTATGCTGT | 0.976 ± 0.02
GGTTTCTCGT | 0.967 ± 0.04
TTTTGTTACA | 1.011 ± 0.0029
GGGCATTTAG | 1.03 ± 0.092
GGGCGGCGGC | 0.988 ± 0.0099

Sequence | switch fluorescence ratio
TGAATATATG | 1.02 ± 0.032
GGGTCGCGTG | 1.02 ± 0.033
GGGTCTGGTT | 0.976 ± 0.033
TTCCCAGTGT | 1.87 ± 0.053
AGGTTTATAT | 0.999 ± 0.016
ATTGTACAGG | 1.033 ± 0.0021
GTCAGCCTTT | 0.983 ± 0.025
TCACTCATTT | 1.01 ± 0.019
CGATGGTGAG | 1 ± 0.047
AGCTTTATGC | 0.935 ± 0.043
ACGCGGGTAA | 1.023 ± 0.0095
GACCATACGT | 1.49 ± 0.026
GTATTGATTT | 0.9769 ± 0.0055
ACAAGGCCTT | 0.993 ± 0.031
TGGGACGATC | 1.05 ± 0.028
TTTGATATAA | 0.991 ± 0.031
ATCTTGGCTG | 0.983 ± 0.03
TACAAGTCGA | 1.016 ± 0.0042
GGCTTTTGTG | 0.974 ± 0.036
TGCCGCCGGG | 1.03 ± 0.011
TGCGGGGGG | 0.9855 ± 0.0037
TGGATTCTCT | 0.997 ± 0.017
TGGTGTTGGA | 0.9906 ± 0.0068
TGCACGTTTT | 1.09 ± 0.07
GGGATGAGAG | 1 ± 0.04

Sequence | switch fluorescence ratio
TTTATAGTTT | 1.01 ± 0.026
CTCTGGGGTA | 1.05 ± 0.031
GCGCCCTGTG | 1.122 ± 0.0062
TTAGTTACGA | 1.04 ± 0.014
ATTTTGTAGT | 1.02 ± 0.029
GGGTGTTTTG | 0.996 ± 0.013
TAAAAGTGAG | 1 ± 0.022
TAATGAGCTT | 0.995 ± 0.013
GGACAATGGG | 0.985 ± 0.033
CGGTCTGAGG | 1.017 ± 0.002
CGGGGCCTTT | 1.02 ± 0.037
TTTTCATTCT | 1.01 ± 0.013
CGCGGTACGG | 1.47 ± 0.39
CAACCTGCAG | 1.06 ± 0.012
CGTTGGTGTG | 1 ± 0.028
ACATAACGAA | 1.21 ± 0.013
GTGTATCGGT | 0.994 ± 0.023
TTGGAATTTT | 1.03 ± 0.031
TTATAGATTG | 1 ± 0.019
ACATTTGCCC | 1.069 ± 0.003
GTGTGGGGGG | 1.02 ± 0.075
TTGTGGAAAA | 0.953 ± 0.03
TAACCGGATT | 1.1 ± 0.053
AAATTTTTGC | 1.05 ± 0.015
TGAGTGTGCT | 0.972 ± 0.011

Sequence | switch fluorescence ratio
TTGGGTAATT | 0.998 ± 0.022
GGGCGTCGGT | 0.984 ± 0.015
CTTGGTCCCG | 1.01 ± 0.011
AAAAATATGA | 1.01 ± 0.053
GTTTGTTTAG | 1.011 ± 0.006
TGGCTTATTT | 0.988 ± 0.031
ATGGGGGTTT | 0.984 ± 0.042
TGGCCTGCTG | 0.9919 ± 0.0026
CGGTTCGAGT | 1.01 ± 0.035
TGTTGCGTTG | 0.954 ± 0.039
TAGTTACCCG | 0.979 ± 0.045
ATAAGGCTTG | 0.968 ± 0.03
GGGATATAAT | 1.02 ± 0.022
ATCGGAGGGA | 0.986 ± 0.028
CCATGAGTGT | 0.997 ± 0.032
TAGGCTTTAA | 0.976 ± 0.011
TTTTTCACGA | 1.03 ± 0.019
GGAGGGGCGA | 1.1 ± 0.14
TCTGGTTGCG | 1 ± 0.037
AGGAGTTATT | 1 ± 0.024
ATGGTTCCCC | 1.03 ± 0.013
GGGAGAAGGG | 0.95 ± 0.023
TAGGTTGGTC | 1.02 ± 0.064
TTCGGAACGG | 0.991 ± 0.027
ACCATGTATC | 0.998 ± 0.026

Sequence | switch fluorescence ratio
CGTGGTAGGG | 0.992 ± 0.035
CGCAGGTGGG | 1.08 ± 0.042
CGGGGGGGAA | 0.999 ± 0.03
TAGGGTAATT | 0.9965 ± 0.0041
CGGGGATTAG | 0.994 ± 0.017
GCGGGGTTTT | 1.01 ± 0.029
AAAGTGATAT | 1.01 ± 0.028
GGGCGGGGGA | 1.06 ± 0.079
CACTGGGTGT | 1.24 ± 0.021
CGGTCGACGA | 1.01 ± 0.024
GACAGCCCAG | 1 ± 0.019
TTCTTAAAAG | 1.02 ± 0.028
GTTGGGGCCG | 0.991 ± 0.0068
AAGGGTGCGA | 1.02 ± 0.04
CATGATTATG | 0.972 ± 0.012
CAGTTATGTT | 0.993 ± 0.036
CGTGTTGGAC | 1.016 ± 0.0032
TTTGATGTTG | 0.976 ± 0.033
ACGCGGGGGA | 1.03 ± 0.014
TAGGTAAGGT | 1.03 ± 0.029
AACTCCGGCG | 1.129 ± 0.0087
GCTGGGAGGC | 0.947 ± 0.071
GGGGGTAGGA | 1.02 ± 0.038
TTTTAACGTG | 0.979 ± 0.021
AATAGCTCGG | 0.9867 ± 0.0047

Sequence | switch fluorescence ratio
TCTTAGCCCT | 1.01 ± 0.025
TTTTCTGTGT | 0.9398 ± 0.0077
TGCTAGCCGG | 1 ± 0.015
TTAATTTTCT | 1.04 ± 0.033
TTTGTCTTTT | 1.02 ± 0.045
TTTCAGGACT | 0.996 ± 0.041
GGTTCTACAT | 0.998 ± 0.03
TTGAGCCTGT | 0.977 ± 0.028
TGGGTAGAAG | 0.9916 ± 0.0014
TTGGGGATTG | 0.989 ± 0.021
TAGGGGGAAC | 1.01 ± 0.022
CATGTAGAGG | 0.976 ± 0.033
GGCCCAGCGC | 0.976 ± 0.0011
GCGGGAAGGG | 0.995 ± 0.033
TTTGTTACCG | 0.995 ± 0.012
TTAGCATGGG | 1.04 ± 0.037
TTGTTAGATT | 0.994 ± 0.031
AAGCTTTTAT | 0.993 ± 0.06
ATGTGCAGGG | 1.03 ± 0.013
GTGTTGTTGG | 0.986 ± 0.019
CCAAGGCGAT | 2.33 ± 1.8
AGGTGGGCGC | 0.94 ± 0.07
AGTAATGGGT | 0.996 ± 0.017
GGCGCCTTTT | 0.988 ± 0.033
ATCCCAGGGT | 1.89 ± 0.076

Sequence | switch fluorescence ratio
GGGGGCAGCA | 1.01 ± 0.04
ACGTATCTTG | 1.08 ± 0.038
ATCGAATCCT | 1.09 ± 0.012
ATTTTGGACC | 1 ± 0.021
AAACGTCCT | 1.07 ± 0.012
CAGAAACGGT | 1 ± 0.047
TTTTGGGAAT | 1.04 ± 0.052
TCTTTATGTG | 0.998 ± 0.016
GTATTTTGCT | 0.979 ± 0.031
TTTTGATATA | 0.9989 ± 0.0085
AACTTTTTTA | 0.964 ± 0.017
CGATGTGTGT | 0.991 ± 0.035
AAATCACGTA | 1.1818 ± 4.2e-05
GATTTTTGTT | 1.01 ± 0.034
CTAGGTGTGA | 1.07 ± 0.017
ATAATCGATT | 0.978 ± 0.011
TTTTAAAGCT | 1.09 ± 0.039
TCGAAAGTTA | 1.04 ± 0.022
TAAGGGAATT | 1 ± 0.036
GTAGGGGGCG | 1.01 ± 0.017
TATCACTTTC | 1.06 ± 0.033
TTAATGATTT | 1 ± 0.034
TTGGCCCCCA | 1.01 ± 0.017
GCCGGAGGGA | 0.989 ± 0.038
GTTGTAAAGG | 1.02 ± 0.026

Sequence | switch fluorescence ratio
TTCATTTATT | 0.9904 ± 0.0055
GAATTGGTTT | 0.999 ± 0.017
TGCTCCTTGC | 1.08 ± 0.062
CGCGCAGGGA | 1.03 ± 0.013
ATGTTACGTT | 1.02 ± 0.021
ATAGATTAGG | 0.9854 ± 0.0092
ACAGATGAGC | 1.01 ± 0.056
GGTTTTTTGC | 1.01 ± 0.04
ATCTGCTCTT | 1.01 ± 0.04
AACTGTAAAT | 1.25 ± 0.2
AATTGTAAAA | 0.988 ± 0.027
AGATGTTTGT | 1.01 ± 0.038
GGGAAAAGA | 1.04 ± 0.018
TTAAATAAGT | 1 ± 0.025
GGGAAAAACA | 1.02 ± 0.05
TTTTTTTACA | 0.998 ± 0.01
TGAAAAGGGC | 0.9875 ± 0.0095
CATATGACGG | 0.986 ± 0.038
AGAAGTTAGG | 0.973 ± 0.013
CACAGTGAGT | 0.997 ± 0.021
TGGGTTTACG | 1.03 ± 0.029
ATGCAGGCGG | 0.9811 ± 0.001
TCGCGCCCTG | 1.03 ± 0.043
GTGAAGATTG | 1.02 ± 0.032
ATATTATTCT | 1.005 ± 0.0096
